Laboratory results published in ChEMBL document CHEMBL4321793, “Can Cysteine Protease Cross-Class Inhibitors Achieve Selectivity?” (J Med Chem, 2019).

Legend:
[1] = compound: N=C(N)NCCC[C@H](NC(=O)OCc1ccccc1)C(=O)N[C@@H](CCCNC(=N)N)C(=O)Nc1ccc2ccc(=O)oc2c1; experiment: (§1) Inhibition of Trypanosoma cruzi cruzipain assessed as ratio of Kcat/Km using Z-Phe-Arg-MCA as substrate by spectrofluorometric method
[2] = compound: N=C(N)NCCC[C@H](NC(=O)[C@H](Cc1ccc(NC(=N)N)cc1)NC(=O)OCc1ccccc1)C(=O)Nc1ccc2ccc(=O)oc2c1; experiment: as §1
[3] = compound: N=C(N)NCCC[C@H](NC(=O)[C@H](Cc1ccncc1)NC(=O)OCc1ccccc1)C(=O)Nc1ccc2ccc(=O)oc2c1; experiment: as §1
[4] = compound: N=C(N)NCCC[C@H](NC(=O)[C@H](Cc1ccccc1)NC(=O)OCc1ccccc1)C(=O)Nc1ccc2ccc(=O)oc2c1; experiment: as §1
[5] = substrate: N=C(N)NCCC[C@H](NC(=O)OCc1ccccc1)C(=O)N[C@@H](CCCNC(=N)N)C(=O)Nc1ccc2ccc(=O)oc2c1; experiment: (§2) Inhibition of human cathepsin L assessed as ratio of Kcat/Km using Z-Phe-Arg-MCA as substrate by spectrofluorometric method
[6] = substrate: N=C(N)NCCC[C@H](NC(=O)[C@H](Cc1ccc(NC(=N)N)cc1)NC(=O)OCc1ccccc1)C(=O)Nc1ccc2ccc(=O)oc2c1; experiment: as §2
[7] = substrate: N=C(N)NCCC[C@H](NC(=O)[C@H](Cc1ccncc1)NC(=O)OCc1ccccc1)C(=O)Nc1ccc2ccc(=O)oc2c1; experiment: as §2
[8] = substrate: N=C(N)NCCC[C@H](NC(=O)[C@H](Cc1ccccc1)NC(=O)OCc1ccccc1)C(=O)Nc1ccc2ccc(=O)oc2c1; experiment: as §2

| Protein | kcat/Km [1] | kcat/Km [2] | kcat/Km [3] | kcat/Km [4] | kcat/Km [5] | kcat/Km [6] | kcat/Km [7] | kcat/Km [8] |
| --- | --- | --- | --- | --- | --- | --- | --- | --- |
| Cruzipain (Trypanosoma cruzi), P25779 (protein) MSGWARALLLAAVLVVMACLVPAATASLHAEETLTSQFAEFKQKHGRVYESAAEEAFRLSVFRENLFLARLHAAANPHATFGVTPFSDLTREEFRSRYHNGAAHFAAAQERARVPVKVEVVGAPAAVDWRARGAVTAVKDQGQCGSCWAFSAIGNVECQWFLAGHPLTNLSEQMLVSCDKTDSGCSGGLMNNAFEWIVQENNGAVYTEDSYPYASGEGISPPCTTSGHTVGATITGHVELPQDEAQIAAWLAVNGPVAVAVDASSWMTYTGGVMTSCVSEQLDHGVLLVGYNDSAAVPYWIIKNSWTTQWGEEGYIRIAKGSNQCLVKEEASSAVVGGPGPTPEPTTTTTTSAPGPSPSYFVQMSCTDAACIVGCENVTLPTGQCLLTTSGVSAIVTCGAETLTEEVFLTSTHCSGPSVRSSVPLNKCNRLLRGSVEFFCGSSSSGRLADVDRQRRHQPYHSRHRRL | 395000 M⁻¹ s⁻¹ | 1.1e+06 M⁻¹ s⁻¹ | 6.95e+06 M⁻¹ s⁻¹ | 9.67e+06 M⁻¹ s⁻¹ |  |  |  |  |
| Procathepsin L (Homo sapiens) (protein) MNPTLILAAFCLGIASATLTFDHSLEAQWTKWKAMHNRLYGMNEEGWRRAVWEKNMKMIELHNQEYREGKHSFTMAMNAFGDMTSEEFRQVMNGFQNRKPRKGKVFQEPLFYEAPRSVDWREKGYVTPVKNQGQCGSCWAFSATGALEGQMFRKTGRLISLSEQNLVDCSGPQGNEGCNGGLMDYAFQYVQDNGGLDSEESYPYEATEESCKYNPKYSVANDTGFVDIPKQEKALMKAVATVGPISVAIDAGHESFLFYKEGIYFEPDCSSEDMDHGVLVVGYGFESTESDNNKYWLVKNSWGEEWGMGGYVKMAKDRRNHCGIASAASYPTV |  |  |  |  | 37000 M⁻¹ s⁻¹ | 438000 M⁻¹ s⁻¹ | 818000 M⁻¹ s⁻¹ | 9.46e+06 M⁻¹ s⁻¹ |
